This is an account of results in publication PMC13213242, “A novel ψ–χ fusion protein for unravelling the contributions of χ to DNA replication and repair” (Nucleic Acids Research, 2026).

Like-named read-outs stand apart in the source and are kept apart here.

Assay [1] addresses β-AF488_(2) (β sliding clamp R103C/I305C/C260S/C333S labelled with Alexa Fluor 488) (E. coli) (UniProt P0A988). Nature of the assay: other fluorescence titration; γ complex titrated into β-AF488_(2) (20 nM in the text, 10 nM in the legend) with 0.5 mM ATP; relative AF488 intensity at 520 nm, excitation 495 nm; reaction buffer 20 mM Tris–HCl pH 7.5, 50 mM NaCl, 8 mM MgCl2, 5 mM DTT, 0.5 mM EDTA, 40 μg/ml BSA, 4% glycerol; three independent experiments.

The target in assay [2] is beta clamp (Escherichia coli) (UniProt P0A988). As to conditions: cited from earlier work.
The target is the same in assay [3]. The following applies: cited from earlier work. The source holds these as a separate data set.
The target of assay [4] is T1, WT γ complex clamp loader (γ3δδ′ψχ) (E. coli, UniProt P06710-2 1-431; P28630 1-343; P28631 1-334; P28632 1-137; P28905 1-147).
T1 construct: DNA polymerase III subunit γ, the truncated form of DnaX made by a translational frameshift, E. coli; DNA polymerase III subunit δ, E. coli; DNA polymerase III subunit δ′, E. coli; DNA polymerase III subunit ψ, E. coli; DNA polymerase III subunit χ, E. coli; also called WT clamp loader; source: expressed and purified as described previously [12, 25–28]; copies: 3 + + + +
Nature of the assay: other fluorescence titration; γ complex titrated into β-AF488_(2) (20 nM in the text, 10 nM in the legend) with 0.5 mM ATP; relative AF488 intensity at 520 nm, excitation 495 nm; reaction buffer 20 mM Tris–HCl pH 7.5, 50 mM NaCl, 8 mM MgCl2, 5 mM DTT, 0.5 mM EDTA, 40 μg/ml BSA, 4% glycerol; three independent experiments. As to conditions: both partners purified.

Broadly, the Kd is the free concentration of one partner at which half of the binding sites on the other are occupied at equilibrium, for simple one-to-one binding. In the case of “γ complex containing ψ–GS8–χ (γ3δδ′ψ–GS8–χ) (from UniProt P06710-2 1-431; P28630 1-343; P28631 1-334; P28632 1-137)”, in assay [1], the Kd turned out to be 4.2 nM.
As for “γ complex containing ψ–GS12–χ (γ3δδ′ψ–GS12–χ) (from UniProt P06710-2 1-431; P28630 1-343; P28631 1-334; P28632 1-137)”, in assay [1], the Kd came to 2.1 nM.
With “gamma complex clamp loader (from UniProt P06710)”, the Kd in assay [2] is 3.3 nM; in assay [3], 3.2 nM.

B1: β-AF488_(2) (β sliding clamp R103C/I305C/C260S/C333S labelled with Alexa Fluor 488) (natural protein, E. coli, UniProt P0A988 1-366, looked up)
chain: MKFTVEREHLLKPLQQVSGPLGGRPTLPILGNLLLQVADGTLSLTGTDLEMEMVARVALVQPHEPGATTVPARKFFDICRGLPEGAEIAVQLEGERMLVRSGCSRFSLSTLPAADFPNLDDWQSEVEFTLPQATMKRLIEATQFSMAHQDVRYYLNGMLFETEGEELRTVATDGHRLAVCSMPIGQSLPSHSVIVPRKGVIELMRMLDGGDNPLRVQIGSNNIRAHVGDFIFTSKLVDGRFPDYRRVLPKNPDKHLEAGSDLLKQAFARAAILSNEKFRGVRLYVSENQLKITANNPEQEEAEECLDVTYSGAEMEIGFNVSYVLDVLNALKSENVRMMLTDSVSSVQIEDAASQSAAYVVMPMRL
modifications: Alexa Fluor 488 (maleimide) on the introduced surface Cys residues (R103C, I305C)
notes: DNA polymerase III β sliding clamp, E. coli; labelled at both sides of the dimer interface; also called β-AF88_(2); β-R103C/I305C/C260S/C333S; source: expressed and purified as described previously; labelled with AF488 maleimide, purified (BioGel P6-DG desalting, HiTrap Q)
As for B1, the dissociation constant Kd in assay [4] was determined as 2 nM.
